Tests used:
[1] = molecular target: T1, human αvβ3 integrin on cells (human, UniProt P06756 31-1048; P05106 27-788); test: flow cytometry binding isotherm, αvβ3-CHO cells, no treatment
T1 construct: whole, on cells; also called vitronectin receptor; αvβ3-CHO cells
Procedure: (§1) Typically, cells were cultured overnight in low serum medium (e.g., 0.5% fetal bovine serum), resuspended in incubation buffer at 1-1.5×10⁷ cells/ml, and 4-6×10⁵ cells were incubated with one of these ligands for 30 min at room temperature in a final volume of 50 μl. […] After 30 min at room temperature, cells were washed and incubated with phycoerythrin-streptavidin (1:25 final dilution; Molecular Probes) for 20 min on ice. […] Cells were washed and resuspended in 0.5 ml incubation buffer containing 2 μg/ml propidium iodide (Sigma, St. Louis, Mo.). Ligand binding (FL1 channel) was analyzed immediately on the gated subset of live cells (propidium iodide-negative, FL3) that was strongly positive for αᵥβ₃ expression (FL2). Binding isotherms were subjected to non-linear, least squares regression analysis using an equation for one-site binding (Prism 2.0 software; GraphPad Software, San Diego, Calif.). Two-tailed P values for paired samples were obtained by Student's t test.

[2] = molecular target: T1, human αvβ3 integrin on cells; test: cell-based or functional assay
[3] = molecular target: T2, αIIbβ3 on human platelets (human, UniProt P08514 32-1039; P05106 27-788); test: flow cytometry on human platelets
T2 construct: whole, on cells; also called platelet αIIbβ3

[4] = molecular target: T1, human αvβ3 integrin on cells; test: flow cytometry binding isotherm, αvβ3-CHO cells, activating antibody AP5
Procedure: as §1

[5] = molecular target: T1, human αvβ3 integrin on cells; test: flow cytometry, JY cells, 100 nM phorbol myristate acetate for 15 min
[6] = molecular target: T1, human αvβ3 integrin on cells; test: flow cytometry, equilibrium binding, unstimulated αvβ3-CHO cells; reference aPB

T1 sequence (P06756 31-1048, chain 1 of 2): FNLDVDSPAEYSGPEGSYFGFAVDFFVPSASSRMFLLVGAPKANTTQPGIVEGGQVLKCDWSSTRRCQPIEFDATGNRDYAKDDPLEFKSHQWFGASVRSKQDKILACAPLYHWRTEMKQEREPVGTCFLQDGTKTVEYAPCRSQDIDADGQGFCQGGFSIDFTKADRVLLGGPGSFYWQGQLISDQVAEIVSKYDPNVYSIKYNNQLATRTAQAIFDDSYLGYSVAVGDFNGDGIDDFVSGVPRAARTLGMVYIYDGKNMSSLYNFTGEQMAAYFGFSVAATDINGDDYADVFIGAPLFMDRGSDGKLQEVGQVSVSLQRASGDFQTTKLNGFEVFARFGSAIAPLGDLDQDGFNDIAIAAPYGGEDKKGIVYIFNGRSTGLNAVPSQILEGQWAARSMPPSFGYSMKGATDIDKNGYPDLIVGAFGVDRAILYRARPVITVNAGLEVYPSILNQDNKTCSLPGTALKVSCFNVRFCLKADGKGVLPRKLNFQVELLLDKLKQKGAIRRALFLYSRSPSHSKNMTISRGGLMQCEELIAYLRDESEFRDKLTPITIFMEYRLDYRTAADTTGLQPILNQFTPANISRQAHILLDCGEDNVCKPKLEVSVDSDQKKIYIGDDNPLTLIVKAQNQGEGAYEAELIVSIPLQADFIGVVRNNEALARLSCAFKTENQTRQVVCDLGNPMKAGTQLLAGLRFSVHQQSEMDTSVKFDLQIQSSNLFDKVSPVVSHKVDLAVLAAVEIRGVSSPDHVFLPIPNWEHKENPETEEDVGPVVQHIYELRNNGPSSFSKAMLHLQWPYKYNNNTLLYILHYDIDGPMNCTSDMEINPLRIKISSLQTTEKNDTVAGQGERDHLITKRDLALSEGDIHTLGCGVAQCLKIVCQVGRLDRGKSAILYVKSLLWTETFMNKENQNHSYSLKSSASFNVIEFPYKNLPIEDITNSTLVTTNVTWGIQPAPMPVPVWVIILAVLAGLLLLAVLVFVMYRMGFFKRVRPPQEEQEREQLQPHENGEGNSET
T1 sequence (P05106 27-788, chain 2 of 2): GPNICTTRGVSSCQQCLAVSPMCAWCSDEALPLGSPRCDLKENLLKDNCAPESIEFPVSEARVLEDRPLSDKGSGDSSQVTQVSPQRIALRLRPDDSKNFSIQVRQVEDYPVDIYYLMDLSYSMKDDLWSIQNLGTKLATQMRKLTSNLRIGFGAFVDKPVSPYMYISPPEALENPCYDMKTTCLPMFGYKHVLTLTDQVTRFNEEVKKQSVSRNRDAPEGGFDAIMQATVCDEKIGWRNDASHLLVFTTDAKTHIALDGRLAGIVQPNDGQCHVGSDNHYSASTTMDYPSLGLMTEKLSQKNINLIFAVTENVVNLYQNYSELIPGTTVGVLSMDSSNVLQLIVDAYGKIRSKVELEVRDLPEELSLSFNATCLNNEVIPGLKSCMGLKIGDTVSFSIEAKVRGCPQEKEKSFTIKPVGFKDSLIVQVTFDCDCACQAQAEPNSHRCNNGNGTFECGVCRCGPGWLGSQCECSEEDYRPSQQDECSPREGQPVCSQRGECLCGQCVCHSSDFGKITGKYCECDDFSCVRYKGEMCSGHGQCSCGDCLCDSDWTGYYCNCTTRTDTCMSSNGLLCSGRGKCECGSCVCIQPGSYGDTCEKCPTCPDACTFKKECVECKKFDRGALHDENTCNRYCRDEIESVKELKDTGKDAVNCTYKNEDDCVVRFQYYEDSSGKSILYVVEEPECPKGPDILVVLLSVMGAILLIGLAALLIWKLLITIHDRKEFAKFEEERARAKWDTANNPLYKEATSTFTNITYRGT
T2 sequence (P08514 32-1039, chain 1 of 2): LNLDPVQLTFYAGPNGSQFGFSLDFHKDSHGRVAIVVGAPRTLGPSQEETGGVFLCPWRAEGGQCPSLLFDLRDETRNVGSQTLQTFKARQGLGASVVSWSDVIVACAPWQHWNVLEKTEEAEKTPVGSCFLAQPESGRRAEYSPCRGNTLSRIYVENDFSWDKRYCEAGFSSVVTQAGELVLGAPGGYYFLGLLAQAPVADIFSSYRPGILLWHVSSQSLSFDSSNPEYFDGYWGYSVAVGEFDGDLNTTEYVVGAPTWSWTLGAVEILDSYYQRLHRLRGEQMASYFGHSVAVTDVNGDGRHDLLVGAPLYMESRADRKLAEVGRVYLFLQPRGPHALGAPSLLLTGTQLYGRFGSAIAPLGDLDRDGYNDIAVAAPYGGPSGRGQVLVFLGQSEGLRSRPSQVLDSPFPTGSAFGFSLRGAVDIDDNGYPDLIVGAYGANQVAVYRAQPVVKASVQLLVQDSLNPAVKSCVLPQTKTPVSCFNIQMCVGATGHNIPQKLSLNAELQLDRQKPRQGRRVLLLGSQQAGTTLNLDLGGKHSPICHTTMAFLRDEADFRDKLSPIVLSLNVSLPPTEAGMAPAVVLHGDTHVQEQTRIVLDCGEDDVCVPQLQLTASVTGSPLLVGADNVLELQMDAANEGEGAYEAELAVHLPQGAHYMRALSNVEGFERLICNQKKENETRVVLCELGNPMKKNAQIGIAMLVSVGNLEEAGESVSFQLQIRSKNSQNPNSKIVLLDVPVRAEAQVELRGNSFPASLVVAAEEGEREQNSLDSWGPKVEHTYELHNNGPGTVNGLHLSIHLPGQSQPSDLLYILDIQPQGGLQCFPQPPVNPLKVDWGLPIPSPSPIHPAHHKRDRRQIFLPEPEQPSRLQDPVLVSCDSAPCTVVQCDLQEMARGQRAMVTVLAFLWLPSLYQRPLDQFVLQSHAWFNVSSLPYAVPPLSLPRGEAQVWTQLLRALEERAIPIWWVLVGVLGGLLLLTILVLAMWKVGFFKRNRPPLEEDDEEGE
T2 sequence (P05106 27-788, chain 2 of 2): as the sequence (P05106 27-788, chain 2 of 2) above

Binder	Kd [1] [µM]	shift of the adhesion dose-response curve with AP5 against no additive [2] [fold]	binding result [3]	Kd [4] [nM]	fold increase in specific binding with phorbol myristate acetate against no agonist [5] [fold]	fold lower affinity/avidity than for aPB [6] [fold]
Recombinant penton base from adenovirus type 2 (ligand, also called Alexa-penton base; aPB) MQRAAMYEEGPPPSYESVVSAAPVAAALGSPFDAPLDPPFVPPRYLRPTGGRNSIRYSELAPLFDTTRVYLVDNKSTDVASLNYQNDHSNFLTTVIQNNDYSPGEASTQTINLDDRSHWGGDLKTILHTNMPNVNEFMFTNKFKARVMVSRSLTKDKQVELKYEWVEFTLPEGNYSETMTIDLMNNAIVEHYLKVGRQNGVLESDIGVKFDTRNFRLGFDPVTGLVMPGVYTNEAFHPDIILLPGCGVDFTHSRLSNLLGIRKRQPFQEGFRITYDDLEGGNIPALLDVDAYQASLKDDTEQGGDGAGGGNNSGSGAEENSNAAAAAMQPVEDMNDHAIRGDTFATRAEEKRAEAEAAAEAAAPAAQPEVEKPQKKPVIKPLTEDSKKRSYNLISNDSTFTQYRSWYLAYNYGDPQTGIRSWTLLCTPDVTCGSEQVYWSLPDMMQDPVTFRSTSQISNFPVVGAELLPVHSKSFYNDQAVYSQLIRQFTSLTHVFNRFPENQILARPPAPTITTVSENVPALTDHGTLPLRNSIGGVQRVTITDARRRTCPYVYKALGIVSPRVLSSRTF	0.55	7	no binding	160	2.7	–
Purified human fibrinogen (ligand, also called FITC-fibrinogen) chain 1: ADSGEGDFLAEGGGVRGPRVVERHQSACKDSDWPFCSDEDWNYKCPSGCRMKGLIDEVNQDFTNRINKLKNSLFEYQKNNKDSHSLTTNIMEILRGDFSSANNRDNTYNRVSEDLRSRIEVLKRKVIEKVQHIQLLQKNVRAQLVDMKRLEVDIDIKIRSCRGSCSRALAREVDLKDYEDQQKQLEQVIAKDLLPSRDRQHLPLIKMKPVPDLVPGNFKSQLQKVPPEWKALTDMPQMRMELERPGGNEITRGGSTSYGTGSETESPRNPSSAGSWNSGSSGPGSTGNRNPGSSGTGGTATWKPGSSGPGSTGSWNSGSSGTGSTGNQNPGSPRPGSTGTWNPGSSERGSAGHWTSESSVSGSTGQWHSESGSFRPDSPGSGNARPNNPDWGTFEEVSGNVSPGTRREYHTEKLVTSKGDKELRTGKEKVTSGSTTTTRRSCSKTVTKTVIGPDGHKEVTKEVVTSEDGSDCPEAMDLGTLSGIGTLDGFRHRHPDEAAFFDTASTGKTFPGFFSPMLGEFVSETESRGSESGIFTNTKESSSHHPGIAEFPSRGKSSSYSKQFTSSTSYNRGDSTFESKSYKMADEAGSEADHEGTHSTKRGHAKSRPV chain 2: QGVNDNEEGFFSARGHRPLDKKREEAPSLRPAPPPISGGGYRARPAKAAATQKKVERKAPDAGGCLHADPDLGVLCPTGCQLQEALLQQERPIRNSVDELNNNVEAVSQTSSSSFQYMYLLKDLWQKRQKQVKDNENVVNEYSSELEKHQLYIDETVNSNIPTNLRVLRSILENLRSKIQKLESDVSAQMEYCRTPCTVSCNIPVVSGKECEEIIRKGGETSEMYLIQPDSSVKPYRVYCDMNTENGGWTVIQNRQDGSVDFGRKWDPYKQGFGNVATNTDGKNYCGLPGEYWLGNDKISQLTRMGPTELLIEMEDWKGDKVKAHYGGFTVQNEANKYQISVNKYRGTAGNALMDGASQLMGENRTMTIHNGMFFSTYDRDNDGWLTSDPRKQCSKEDGGGWWYNRCHAANPNGRYYWGGQYTWDMAKHGTDDGVVWMNWKGSWYSMRKMSMKIRPFFPQQ chain 3: YVATRDNCCILDERFGSYCPTTCGIADFLSTYQTKVDKDLQSLEDILHQVENKTSEVKQLIKAIQLTYNPDESSKPNMIDAATLKSRKMLEEIMKYEASILTHDSSIRYLQEIYNSNNQKIVNLKEKVAQLEAQCQEPCKDTVQIHDITGKDCQDIANKGAKQSGLYFIKPLKANQQFLVYCEIDGSGNGWTVFQKRLDGSVDFKKNWIQYKEGFGHLSPTGTTEFWLGNEKIHLISTQSAIPYALRVELEDWNGRTSTADYAMFKVGPEADKYRLTYAYFAGGDAGDAFDGFDFGDDPSDKFFTSHNGMQFSTWDNDNDKFEGNCAEQDGSGWWMNKCHAGHLNGVYYQGGTYSKASTPNGYDNGIIWATWKTRWYSMKKTTMKIIPFNRLTIGEGQQHHLGGAKQAGDV	9.2	–	–	566	–	~15
